Bridge positions count the residues as written; N and C are the ends. Ends that are not written are not given here. COCH2 = acetyl group that carries the bridge
What was measured:
[1] = target: T1, Recombinant Human FGFR2 alpha (IIIc) Fc Chimera Protein (Homo sapiens, UniProt P21802); experiment: SPR binding affinity of chemically synthesized cyclic peptide to immobilized FGFR; settings: SPR binding amount at 10 nmol/L cyclic peptide, 25° C., per one molecule of FGFR; chemically synthesized product
T1 construct: Fc (chimera); purchased R&D systems 712-FR-050
T1 sequence (P21802 with tags, fused parts or gaps limits assumed): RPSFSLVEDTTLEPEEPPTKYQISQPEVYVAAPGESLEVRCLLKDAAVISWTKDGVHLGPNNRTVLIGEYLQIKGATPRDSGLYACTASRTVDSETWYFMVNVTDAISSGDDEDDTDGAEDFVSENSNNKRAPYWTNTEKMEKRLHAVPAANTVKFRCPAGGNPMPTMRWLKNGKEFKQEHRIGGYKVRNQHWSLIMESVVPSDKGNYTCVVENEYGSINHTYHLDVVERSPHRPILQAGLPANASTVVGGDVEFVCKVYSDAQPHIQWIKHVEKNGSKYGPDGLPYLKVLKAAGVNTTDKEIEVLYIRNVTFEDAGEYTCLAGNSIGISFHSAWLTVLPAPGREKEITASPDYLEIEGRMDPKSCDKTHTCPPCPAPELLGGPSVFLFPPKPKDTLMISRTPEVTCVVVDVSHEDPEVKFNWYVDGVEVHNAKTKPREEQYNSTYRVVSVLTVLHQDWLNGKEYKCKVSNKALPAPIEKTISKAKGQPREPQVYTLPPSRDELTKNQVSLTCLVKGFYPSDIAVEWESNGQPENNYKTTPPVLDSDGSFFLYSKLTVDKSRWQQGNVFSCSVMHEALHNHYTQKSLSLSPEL
Procedure: The binding affinity of the cyclic peptide to FGFR was evaluated using a surface plasmon resonance (SPR) method.
(§1) A CM5 sensor chip (Cytiva, 29149603) was set in Biacore-T200 (manufactured by Cytiva) which is a surface plasmon resonance device, and an HBS-EP buffer (Cytiva, BR100826) was added as a running buffer at a flow rate of 10 μL/min to equilibrate the flow channel. Next, 70 μL of a mixed aqueous solution of 0.2 mol/L 1-(3-dimethylaminopropyl)-3-ethylcarbodiimide (EDC) and 0.05 mol/L N-hydroxysuccinimide (NHS) was added to activate the sensor chip. Then, Recombinant Human FGFR2 alpha (IIIc) Fc Chimera Protein CF (R&D systems, 712-FR-050) prepared at 50 nmol/L in an Acetate 4.5 buffer (Cytiva, BR100350) was added thereto to perform immobilization at about 5000 RU. Thereafter, the blocking treatment was performed with an ethanolamine solution. In addition, in another flow channel of the same sensor chip, blocking treatment was performed immediately after activation without immobilizing FGFR.
A cyclic peptide diluted to 10 nmol/L using HBS-EP was added to each flow channel of the FGFR-immobilized sensor chip produced above at 25° C. for 10 minutes, then HBS-EP was allowed to flow as a running buffer for 30 minutes, and the binding of the cyclic peptide to FGFR was measured. Thereafter, a regeneration treatment of removing the bound cyclic peptide was performed by repeating the flow of a regeneration liquid in which sodium chloride powder was dissolved in Glysine 1.5 (Cytiva, BR100354) to a final concentration of 0.15 mol/L for 1 minute in each flow channel twice. The binding amount of the cyclic peptide was evaluated from the difference between the measured value of Biacore-T200 in the flow channel in which FGFR was immobilized and the measured value of Biacore-T200 in the flow channel in which FGFR was not immobilated, in a case where a 10 nmol/L cyclic peptide was allowed to flow.
The binding amount of the cyclic peptide evaluated above was normalized to the binding amount of the cyclic peptide molecules per one molecule of FGFR using the molecular weights of the cyclic peptide and FGFR, and the binding affinity to FGFR was evaluated according to the following evaluation criteria. The evaluation result preferably satisfies the evaluation criteria A, B, or C.

[2] = Molecular stability after reducing agent (DTT) treatment, LC; format: physicochemical; settings: residual rate after DTT aqueous solution, room temperature, 1 hour
Procedure: The molecular stability of the cyclic peptide was evaluated by analyzing an aqueous solution of the cyclic peptide treated with a reducing agent by liquid chromatography (LC).
The reducing agent treatment was performed under the following conditions based on the concentration of glutathione contained in the cells. 25 μL of a 0.2 mg/mL cyclic peptide aqueous solution was prepared, 58.8 μL of a 12.6 mmol/L DTT aqueous solution was added to the aqueous solution, and the mixture was incubated at room temperature for 1 hour to obtain an aqueous solution of the cyclic peptide treated with a reducing agent. The DTT aqueous solution was used by diluting a 1 mol/L (+−)-dithiothreitol (DTT) solution (FUJIFILM Wako Pure Chemical Corporation, 044-33871) with water. The total area of all the peaks in LC/MS of the cyclic peptide before the reducing agent treatment was set to 100%, and the proportion of the total area of all the peaks in LC/MS of the aqueous solution of the cyclic peptide treated with the reducing agent was determined to calculate the residual rate of the cyclic peptide, and the molecular stability was evaluated according to the following evaluation criteria. The evaluation result preferably satisfies the evaluation criteria A, B, or C.
The LC used for the evaluation of molecular stability was set to the following conditions. • LC device: Prominence series (pump, column oven, autosampler, detector) (manufactured by Shimadzu Corporation) • Detector: photodiode array detector (SPD-M20A), measurement wavelength of 280 nm • Column: TSKgel ODS-100V, inner diameter of 4.6 mm×length of 150 mm, particle diameter of 5 μm (manufactured by Tosoh Corporation) • Eluent A: solution containing 0.1% trifluoroacetic acid as solute, and solvent is 100% water • Eluent B: solution containing 0.1% trifluoroacetic acid as solute, and solvent is 100% acetonitrile • Flow rate: 1.0 mL/min • Injection amount: 25 μL • Gradient: 20% to 50%: Eluent B (0 to 15 minutes), 100%: Eluent B (15 minutes) • Column temperature: 40° C.

[3] = target: T2, FGFR4 Protein, Human, Recombinant (His Tag) (Homo sapiens, UniProt P22455); experiment: SPR FGFR versatility, peptide immobilized; settings: SPR binding amount at 1 μmol/L FGFR, 25° C., per one molecule of immobilized cyclic peptide
T2 construct: His; purchased Sino Biological 10538-H08H
T2 sequence (P22455 22-802): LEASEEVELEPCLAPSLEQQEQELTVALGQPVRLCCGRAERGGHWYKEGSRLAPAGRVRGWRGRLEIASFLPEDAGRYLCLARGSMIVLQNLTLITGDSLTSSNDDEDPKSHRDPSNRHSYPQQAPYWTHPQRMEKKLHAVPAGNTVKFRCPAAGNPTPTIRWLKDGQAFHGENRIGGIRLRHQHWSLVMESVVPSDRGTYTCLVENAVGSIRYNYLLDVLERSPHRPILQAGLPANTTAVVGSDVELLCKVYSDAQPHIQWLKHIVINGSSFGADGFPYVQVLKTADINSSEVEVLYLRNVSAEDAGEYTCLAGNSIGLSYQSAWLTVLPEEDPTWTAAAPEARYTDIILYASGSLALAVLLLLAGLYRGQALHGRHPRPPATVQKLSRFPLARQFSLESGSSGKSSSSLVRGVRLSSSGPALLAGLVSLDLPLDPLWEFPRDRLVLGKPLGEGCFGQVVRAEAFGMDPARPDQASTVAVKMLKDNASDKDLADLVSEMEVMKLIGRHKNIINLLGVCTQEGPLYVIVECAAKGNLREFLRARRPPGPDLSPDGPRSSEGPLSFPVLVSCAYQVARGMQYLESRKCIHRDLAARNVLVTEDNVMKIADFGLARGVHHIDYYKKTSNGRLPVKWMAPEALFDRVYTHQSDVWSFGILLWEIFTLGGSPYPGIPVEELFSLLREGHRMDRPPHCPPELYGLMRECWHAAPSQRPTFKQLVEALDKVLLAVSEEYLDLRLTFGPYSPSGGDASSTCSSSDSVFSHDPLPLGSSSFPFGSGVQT
Procedure: (§2) The binding of the cyclic peptide to various types of FGFRs was evaluated using a surface plasmon resonance (SPR) method.
as §1, with “a cyclic peptide” for “Recombinant Human FGFR2 alpha (IIIc) Fc Chimera Protein CF (R&D systems, 712-FR-050)”, “to 2 mg/mL” for “at 50 nmol/L”, “HBS-EP” for “an Acetate 4.5”, “buffer” for “buffer (Cytiva, BR100350)”, “200” for “5000”
(§3) After various FGFRs (FGFR1 Protein, Human, Recombinant (His Tag) (Sino Biological, 10616-H08H), FGFR2 Protein, Human, Recombinant (His Tag) (Sino Biological, 10824-H08H), FGFR3 Protein, Human, Recombinant (ECD, His Tag) (Sino Biological, 16044-H08H), FGFR4 Protein, Human, Recombinant (His Tag) (Sino Biological, 10538-H08H)) diluted with HBS-EP to 1 μmol/L at 25° C. was added to each flow channel of the cyclic peptide-immobilized sensor chip prepared above, for 10 minutes, HBS-EP was allowed to flow as a running buffer for 30 minutes, and the binding of various FGFRs to the cyclic peptide was measured. Thereafter, a regeneration treatment of removing the bound FGFR was performed by repeating the flow of a regeneration liquid in which sodium chloride (final concentration: 0.4 mol/L) and a sodium dodecyl sulfate aqueous solution (mixed concentration: 1%, final concentration: 0.2%) were dissolved in Glysine 1.5 (Cytiva, BR100354) for 1 minute in each flow channel twice. The binding amount of the cyclic peptide was evaluated from the difference between the measured value of Biacore-T200 in the flow channel in which the cyclic peptide was immobilized and the measured value of Biacore-T200 in the flow channel in which the cyclic peptide was not immobilized, in a case where 1 μmol/L FGFR was allowed to flow.
(§4) The binding amount of FGFR evaluated above was normalized to the binding amount of FGFR molecules per one molecule of the cyclic peptide using the molecular weights of the cyclic peptide and FGFR, and the binding affinity to FGFR was evaluated according to the following evaluation criteria. The evaluation result preferably satisfies the evaluation criteria A, B, or C.

[4] = target: T3, FGFR2 Protein, Human, Recombinant (His Tag) (Homo sapiens, UniProt P21802); experiment: SPR FGFR versatility, peptide immobilized; settings: SPR binding amount at 1 μmol/L FGFR, 25° C., per one molecule of immobilized cyclic peptide
T3 construct: His; purchased Sino Biological 10824-H08H
T3 sequence (P21802 22-821): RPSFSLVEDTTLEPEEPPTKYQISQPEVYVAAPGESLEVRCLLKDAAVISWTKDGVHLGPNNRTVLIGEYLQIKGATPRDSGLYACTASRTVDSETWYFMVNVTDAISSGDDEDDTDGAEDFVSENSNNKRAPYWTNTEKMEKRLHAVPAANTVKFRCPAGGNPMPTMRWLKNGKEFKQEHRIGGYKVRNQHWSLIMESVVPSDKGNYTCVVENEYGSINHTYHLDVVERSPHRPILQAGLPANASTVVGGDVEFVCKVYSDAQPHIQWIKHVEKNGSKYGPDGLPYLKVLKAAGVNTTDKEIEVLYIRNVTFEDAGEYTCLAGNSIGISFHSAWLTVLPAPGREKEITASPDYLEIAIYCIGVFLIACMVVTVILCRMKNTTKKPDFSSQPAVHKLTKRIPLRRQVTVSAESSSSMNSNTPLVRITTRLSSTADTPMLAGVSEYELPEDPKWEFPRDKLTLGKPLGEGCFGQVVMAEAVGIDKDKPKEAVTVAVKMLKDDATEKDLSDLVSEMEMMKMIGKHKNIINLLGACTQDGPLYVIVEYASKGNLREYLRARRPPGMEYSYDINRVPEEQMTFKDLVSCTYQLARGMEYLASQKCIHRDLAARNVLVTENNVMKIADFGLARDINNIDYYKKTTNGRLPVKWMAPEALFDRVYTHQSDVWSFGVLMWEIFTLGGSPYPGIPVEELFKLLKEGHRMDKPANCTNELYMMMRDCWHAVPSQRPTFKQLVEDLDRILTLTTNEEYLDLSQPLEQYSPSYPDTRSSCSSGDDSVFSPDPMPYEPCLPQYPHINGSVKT
Procedure: as §2
as §1, with “a cyclic peptide” for “Recombinant Human FGFR2 alpha (IIIc) Fc Chimera Protein CF (R&D systems, 712-FR-050)”, “to 2 mg/mL” for “at 50 nmol/L”, “HBS-EP” for “an Acetate 4.5”, “buffer” for “buffer (Cytiva, BR100350)”, “200” for “5000”
as §3, §4

[5] = target: T4, FGFR3 Protein, Human, Recombinant (ECD, His Tag) (Homo sapiens, UniProt P22607); experiment: SPR FGFR versatility, peptide immobilized; settings: SPR binding amount at 1 μmol/L FGFR, 25° C., per one molecule of immobilized cyclic peptide
T4 construct: FGFR3 Protein, Human, Recombinant (ECD, His Tag) (Sino Biological, 16044-H08H); His; purchased Sino Biological 16044-H08H
T4 sequence (P22607 23-375 limits assumed): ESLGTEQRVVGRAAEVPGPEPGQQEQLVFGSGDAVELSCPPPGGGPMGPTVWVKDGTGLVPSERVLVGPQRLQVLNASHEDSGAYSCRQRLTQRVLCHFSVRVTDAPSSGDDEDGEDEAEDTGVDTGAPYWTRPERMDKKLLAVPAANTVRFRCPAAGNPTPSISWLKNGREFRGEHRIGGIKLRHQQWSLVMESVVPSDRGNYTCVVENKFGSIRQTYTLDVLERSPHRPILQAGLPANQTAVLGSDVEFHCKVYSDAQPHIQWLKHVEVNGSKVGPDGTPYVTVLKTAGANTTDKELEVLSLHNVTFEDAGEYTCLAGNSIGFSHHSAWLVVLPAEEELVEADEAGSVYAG
Procedure: as §2
as §1, with “a cyclic peptide” for “Recombinant Human FGFR2 alpha (IIIc) Fc Chimera Protein CF (R&D systems, 712-FR-050)”, “to 2 mg/mL” for “at 50 nmol/L”, “HBS-EP” for “an Acetate 4.5”, “buffer” for “buffer (Cytiva, BR100350)”, “200” for “5000”
as §3, §4

[6] = target: T5, FGFR1 Protein, Human, Recombinant (His Tag) (Homo sapiens, UniProt P11362); experiment: SPR FGFR versatility, peptide immobilized; settings: SPR binding amount at 1 μmol/L FGFR, 25° C., per one molecule of immobilized cyclic peptide
T5 construct: His; purchased Sino Biological 10616-H08H
T5 sequence (P11362 22-822): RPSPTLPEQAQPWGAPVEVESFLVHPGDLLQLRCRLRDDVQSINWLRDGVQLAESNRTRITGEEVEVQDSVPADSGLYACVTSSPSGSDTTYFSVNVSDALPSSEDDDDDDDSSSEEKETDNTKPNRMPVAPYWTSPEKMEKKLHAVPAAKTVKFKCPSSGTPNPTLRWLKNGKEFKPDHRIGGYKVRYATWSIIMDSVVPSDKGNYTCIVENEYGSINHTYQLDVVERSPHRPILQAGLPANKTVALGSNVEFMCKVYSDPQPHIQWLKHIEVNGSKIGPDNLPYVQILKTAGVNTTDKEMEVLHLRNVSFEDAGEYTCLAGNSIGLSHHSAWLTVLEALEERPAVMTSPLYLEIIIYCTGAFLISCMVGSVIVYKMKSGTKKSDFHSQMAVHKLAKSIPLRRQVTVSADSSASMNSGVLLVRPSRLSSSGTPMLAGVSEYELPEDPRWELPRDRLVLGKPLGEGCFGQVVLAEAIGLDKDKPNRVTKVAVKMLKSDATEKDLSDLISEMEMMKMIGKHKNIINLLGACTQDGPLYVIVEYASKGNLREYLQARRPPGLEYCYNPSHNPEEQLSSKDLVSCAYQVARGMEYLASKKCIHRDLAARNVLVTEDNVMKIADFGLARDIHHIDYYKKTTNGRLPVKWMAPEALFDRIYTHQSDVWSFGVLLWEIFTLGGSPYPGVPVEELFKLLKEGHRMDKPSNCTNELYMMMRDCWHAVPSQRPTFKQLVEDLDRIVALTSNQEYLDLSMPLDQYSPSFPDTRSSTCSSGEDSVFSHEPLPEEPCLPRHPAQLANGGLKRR
Procedure: as §2
as §1, with “a cyclic peptide” for “Recombinant Human FGFR2 alpha (IIIc) Fc Chimera Protein CF (R&D systems, 712-FR-050)”, “to 2 mg/mL” for “at 50 nmol/L”, “HBS-EP” for “an Acetate 4.5”, “buffer” for “buffer (Cytiva, BR100350)”, “200” for “5000”
as §3, §4

450 (YCEENYLDPEQYQYFIYFK(COCH2)YKKK; thioether 2-19) [compound 450]
Evaluation result of binding affinity to FGFR [1]: A (The binding amount is 0.7 molecules of the cyclic peptide/one molecule of FGFR or more.) | Evaluation result of reductive stability [2]: B (The residual rate of the cyclic peptide is 70% or more and less than 90%) | Evaluation result of binding affinity to FGFR4 [3]: B (The binding amount is 0.01 molecules of FGFR/one molecule of the cyclic peptide or more and less than 0.05 molecules of FGFR/one molecule of the cyclic peptide.) | Evaluation result of binding affinity F GFR2 [4]: A (The binding amount is 0.05 molecules of FGFR/one molecule of the cyclic peptide or more.) | Evaluation result of binding affinity to FGFR3 [5]: B (The binding amount is 0.01 molecules of FGFR/one molecule of the cyclic peptide or more and less than 0.05 molecules of FGFR/one molecule of the cyclic peptide.) | Evaluation result of binding affinity to FGFR1 [6]: B (The binding amount is 0.01 molecules of FGFR/one molecule of the cyclic peptide or more and less than 0.05 molecules of FGFR/one molecule of the cyclic peptide.)
